Data reported in article PMC5548745, “Agonist-induced dimer dissociation as a macromolecular step in G protein-coupled receptor signaling” (Nature Communications, 2017).
“Also recorded” adds a separate entry of the source.

B1: FZD6-GFP: GFP-tagged human FZD6 receptor construct (protein)
chain: HSLFTCEPITVPRCMKMAYNMTFFPNLMGHYDQSIAAVEMEHFLPLANLECSPNIETFLCKAFVPTCIEQIHVVPPCRKLCEKVYSDCKKLIDTFGIRWPEELECDRLQYCDETVPVTFDPHTEFLGPQKKTEQVQRDIGFWCPRHLKTSGGQGYKFLGIDQCAPPCPNMYFKSDELEFAKSFIGTVSIFCLCATLFTFLTFLIDVRRFRYPERPIIYYSVCYSIVSLMYFIGFLLGDSTACNKADEKLELGDTVVLGSQNKACTVLFMLLYFFTMAGTVWWVILTITWFLAAGRKWSCEAIEQKAVWFHAVAWGTPGFLTVMLLAMNKVEGDNISGVCFVGLYDLDASRYFVLLPLCLCVFVGLSLLLAGIISLNHVRQVIQHDGRNQEKLKKFMIRIGVFSGLYLVPLVTLLGCYVYEQVNRITWEITWVSDHCRQYHIPCPYQAKAKARPELALFMIKYLMTLIVGISAVFWVGSKKTCTEWAGFFKRNRKRDPISESRRVLQESCEFFLKHNSKVKHKKKHYKPSSHKLKVISKSMGTSTGATANHGTSAVAITSHDYLGQETLTEIQTSPETSMREVKADGASTPRLREQDCGEPASPAASISRLSGEQVDGKGQAGSVSESARSEGRISPKSDITDTGLAQSNNLQVPSSSEPSSLKGSTSLLVHPVSGVRKEQGGGCHSDT
modifications: left off: V5 (on the crosslinked copy), N-terminal, kept | mCherry (on the crosslinked copy), C-terminal, kept | GFP (on the other, mobile copy), C-terminal, kept
notes: GFP-tagged human FZD6 receptor construct

Assays:
[1] = tested on: ERK1/2 phosphorylation in HEK293 cells; assay: P-ERK1/2 immunoblot, HEK293 cells expressing SNAP-FZD6 constructs; type: cell-based; settings: HEK293; C59 5 µM overnight
Protocol: Fig. 6 Relationship between FZD6 dimerization and phosphorylation of ERK1/2. a Mouse lung epithelial (MLE-12) cells were stimulated with WNT-5A (300 ng ml^−1) for 0, 2.5, 5, 10, 20 min. Cell lysates were analyzed for P-ERK1/2 and β-actin by immunoblotting. Additional information in Supplementary Fig. 6. b Bar graph summarizes three independent experiments. Densitometry data were normalized to the unstimulated control. […] Additional information in Supplementary Fig. 6. SNAP-FZD6 wt- and SNAP-FZD6 dimer mutant-induced ERK1/2 phosphorylation in the absence e and presence f of the porcupine inhibitor C59 (5 µM, overnight) were probed by immunoblotting for the SNAP-tag, P-ERK1/2, total ERK1/2 and β-actin. g The bar graph summarizes densitometry data of P-ERK1/2 normalized to total ERK1/2 from 6 different experiments. P = 0.0005; F (2, 15) = 13.08. ***P < 0.001. Empty vector transfection was used as mock. h Increasing amounts of plasmid of either SNAP-FZD6 wt or SNAP-FZD6 dimer mutant in the presence of C59 show a dose-dependent increase in P-ERK1/2 only with the dimer mutant. Data from three independent experiments for the dimer mutant were fit to a linear least-squares model (slope = 0.40 ± 0.10; R ^2 = 0.5943) and this line is shown superimposed. […] This dissociation-dependent activation can be evoked by agonist (WNT^high) or mutation of the dimer interface (symbolized by red stars). WNT^low conditions can be achieved in the presence of C59, which reduces FZD6 wt signaling
MLE-12 or HEK293 cells (ATCC) were plated in a 24- or 48-well plate at a density of 100,000 or 50,000 cells/well, respectively. After 24 h, cells were transfected using Lipofectamine 2000 according to the manufacturer’s instructions. Cells were stimulated (24 h post-transfection) with 300 ng ml^−1 recombinant carrier-free WNT-5A (CF WNT-5A; R&D Systems). Stimulation was stopped by the addition of lysis buffer (1% NP-40, 150 mM NaCl, 50 mM Tris/HCl pH 8). Lysates were sonicated and analyzed by 7.5 or 10% Mini-PROTEAN TGX precast polyacrylamide gels (Bio-Rad) and transferred to PVDF membranes using the Trans-Blot Turbo system (Bio-Rad). After blocking with 5% milk or BSA in TBS-T, membranes were incubated with primary antibodies in blocking buffer: mouse anti-β-actin (1:30,000; Sigma #A5441), rabbit anti-FZD6 (1:1000; NovusBio #NBP1-00830), rabbit anti-Phospho-p44/42 MAPK (ERK1/2) (Thr202/Tyr204) (1:1000; Cell Signaling Technology #9101 L), rabbit anti-p44/42 MAPK (ERK1/2) (1:1000; Cell Signaling Technology #9102), rabbit anti-Phospho-C-RAF (Ser338) (1:1000; Cell Signaling Technology #56A6), rabbit anti-SNAP tag (1:1000, New England Biolabs #P9310S), and rabbit anti-HA (1:4000, abcam #ab9110) overnight at 4 °C. Proteins were detected with horseradish peroxidase-conjugated secondary antibodies (goat anti-rabbit and goat anti-mouse (Pierce)) and Clarity Western ECL Blotting Substrate (Bio-Rad). All uncropped immunoblots can be found in the Supplementary Information.

porcupine = settings: cited from earlier work
FZD6–FZD6 dimer [2] = assay: ratiometric FRET of C-terminally tagged FZD6 constructs; type: cell-based, human
FZD6–FZD6 dimer [3] = assay: dcFRAP of V5-FZD6-mCherry/FZD6-GFP (FZD6 dimerization); type: cell-based, human
Method in brief: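 Live cells co-expressing V5-FZD6-mCherry and FZD6-GFP, surface V5 tag crosslinked with biotin-anti-V5 plus avidin in BE buffer at RT. Membrane areas photobleached, recovery imaged (488/561 nm) over 100 s; mobile fraction from background/bleach-corrected, pre-bleach-normalized intensity at 85-101 s. Cells with <40% crosslink-induced mobility reduction excluded.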

FZD6–FZD6 dimer [4] = assay: dynamic FCCS of V5-FZD6-mCherry/FZD6-GFP; type: cell-based, human; settings: HEK293; representative cell; G cc normalized to green auto-correlation amplitude; prior to stimulation
Protocol: HEK293 cells were grown over-night in Lab-Tek eight-well chamber-glass bottom slides (Nunc, Thermo Scientific, Langensbold, Germany) coated with matrigel. Data were acquired in 10 s intervals. Collection intervals containing abnormal fluorescence peaks (presumably resulting from aggregates or ROIs where the overall fluorescence was decaying, putatively due to membrane movements) were discarded from the overall analysis. The total included measurements time ranged from 20 to 80 s per cell. Measurements were only undertaken on cells where the fluorescence was well localized to the cell surface membrane, as judged by visual inspection in the wide-field and confocal mode. Autofluorescence, as well as fluorescence from both GFP and mCherry in the intracellular region was negligible. The number of fluorescent receptors assessed in each experiment varied from 10–1000 receptors per µm^2 in each HEK293 cell.
Dynamic FCCS measurements of WNT-dependent dissociation and re-association of FZD (Fig. 5c–e) were performed on an FCS/FCCS-equipped Zeiss 780 confocal microscope (Zeiss, Jena, Germany). The instrument details were the same as those of the Confocor 3 described above, with the exception that 561 nm excitation was used for excitation of mCherry, that GFP emission was detected from 500 to 550 nm, and that mCherry emission was detected from 600 to 690 nm. Experiments on cells were performed as described above, with each measurement point consisting of 3–6 measurements of 10 s each. […]
Assuming that M is FZD6-GFP (green) and N is FZD6-mCherry (red) and that all FZD6 form dimers, then the probability of finding a green–red FZD6 dimer is pgr=2×M×N/(M+N)(M+N-1)≈2×M×N/M+N^2=(2cgg+cgr)(2crr+cgr)/2cgg+cgr+crr^2 , where c gg, c gr, and c rr are the corresponding concentrations of the only green FZD6 dimers, the red and green FZD6 dimers and the only red FZD6 dimers. […] From the experiments, we determine the concentrations for c gg, c gr and c rr and compare the concentrations c gr with the c′gr for each cell to get an estimation of how close the model is to experimental data: cgr/c′gr=2cgr×(cgg+cgr+crr)/((2cgg+cgr)(2crr+cgr)) Analysis of the dynamic FCCS measurements of WNT-dependent dissociation and re-association of FZD6: Auto-correlation and cross-correlation curves were analyzed as described above and the amplitudes G g(0)−1, G r(0)−1, and G cc(0)−1 from each of the more than 300 measurements of 10 s duration were estimated by fitting to theoretical models. […]
With the settings described above for detection of emission, the crosstalk from the GFP channel to the mCherry channel, defined as the intensity detected in the mCherry channel divided by the intensity detected in the GFP channel, I r/I g, for a cell expressing only FZD-GFP, was 0.051 or 5.1 %. […]

| Molecule | effect of C59 on FZD6 wt-induced P-ERK1/2 [1] | effect on endogenous WNT secretion (porcupine) | energy transfer between fluorophores (FRET) (FZD6–FZD6 dimer [2]) | mobile fraction of FZD6-GFP before CL (FZD6–FZD6 dimer [3]; HEK293, basal, without biotinylated anti-V5/avidin crosslinking, 85–101 s, mean ± s.e.m., N = 21 ROIs) | mobile fraction of FZD6-GFP after CL (FZD6–FZD6 dimer [3]; HEK293, with biotinylated anti-V5/avidin crosslinking, 85–101 s, mean ± s.e.m., N = 31 ROIs) | dimeric fraction (FZD6–FZD6 dimer [3]; extrapolated from varying expression ratios, mCherry to GFP 1:1) | red molecules also green prior to WNT-5A (FZD6–FZD6 dimer [4]) |
| --- | --- | --- | --- | --- | --- | --- | --- |
| Cc1cc(-c2ccc(CC(=O)Nc3ccc(-c4cccnc4)cc3)cc2)ccn1 [C59, 2-[4-(2-Methylpyridin-4-yl)phenyl]-N-[4-(pyridin-3-yl)phenyl]acetamide] | reduced to basal | blocks secretion of WNT proteins; also recorded: abrogates endogenous WNT secretion |  |  |  |  |  |
| B1 |  |  | not able to detect energy transfer | 80.8 ± 2.0% | 70.7 ± 2.4% | around 25% | 11% |
